Test results taken from the nanobody polyreactivity screen of Harvey et al. (2022).

Assay: yeast display, Sf9 membrane polyspecificity reagent, FACS + sequencing; frameworks hold sequencing errors
Outline: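 Sorting gates, low and high (top ~1%), were placed on anti-HA fluorescence to track expression and on streptavidin fluorescence to track reagent binding. A clone's polyreactivity label is taken from the gate it came out of. The reagent was 10% biotinylated, detergent-solubilized Sf9 membrane, applied for 1 hour at 4 °C to galactose-induced yeast display cells.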

Sequence	polyreactivity (PSR sort gate)
QVQLVESGGGLVQAGGSLRLSCAASGRTSRNNVMGSYRQAPGKERELVAAITKRTDRTYYADSVKGRFTISRDNAKNTVYLQMNSLKPEDTAVYYCAADLSLSTGGRAFPTYGYWGQGTQVTVSS	high polyreactivity
QVQLVESGGGLVQAGGSLRLSCAASGRTSRRNAMGWYRQAPGKERELVAAISGSGGRTNSADSVKGRFTISRDNAQNTVYLQMNSLKPEDTAVYYCNVLTRYYLGYDYWGQGTQVTVSS	high polyreactivity
QVQLVESGGGLVQAGGSLRLSCAASGRTSRVYAMGWYRQAPGKERELVAAITWRGGNTYYADSVKGRFTISRDNAKNTVYLQMNSLKPEDTAVYYCAADKYTHKPHGDYWGQGTQVTVSS	high polyreactivity
QVQLVESGGGLVQAGGSLRLSCAASGRTSSIYTMGWYRQAPGKERELVAAIRGRGGNTYYADSVKGRFTISRDYAKNTVYLLMNSLKPEDTAVYYCNAKPQGVGLYRYEYWGQGTQVTVSS	high polyreactivity
QVQLVESGGGLVQAGGSLRLSCAASGRTSVGYVMGWYRQAPGKERELVASITSGGSTYYADSVKGRFTISRDNAKNTVYLQMNSLKPEDTAVYYCAAQLKSHRTYGHDYWGQGTQVTVSS	low polyreactivity
QVQLVESGGGLVQAGGSLRLSCAASGRTSVIYAMGWYRQAPGKERELVASIRRGGSTSYADSVKGRFTISRDNAKNTVYLQMNSLIPEDTAVYYCAATLVRRARSGPMGYWGQGTQVTVSS	high polyreactivity
QVQLVESGGGLVQAGGSLRLSCAASGRTSYVYAMGWYRQAPGKERELVAAITSSGGSTYYADSVKGRFTISRDNAKNTVYLQMNSLKPEDTAVYYCAAETYPVWGVAFYYWGQGTQVTVSS	high polyreactivity
QVQLVESGGGLVQAGGSLRLSCAASGRTSYYYAMGWSRQAPGKERELVAAISRSGGRTYYADSVKGRFTISRDNAKNTVYLQMNSLKPEDTAVYYCAADPRSYDTGRMDYWGQGTQVTVSS	high polyreactivity
QVQLVESGGGLVQAGGSLRLSCAASGRTVAPYAMGWYRPAPGKERELVAGITYRTGNTYYADSVKGRFTISRDNAKNTVYLQMNSLKPEDTAVYYCAAYSGYYRPRYNFWGQGTQVNVSS	high polyreactivity
QVQLVESGGGLVQAGGSLRLSCAASGRTVGYNAMGWYRQAPGKERELVAAISRSGDSTYYADSVKGRFTISRDNAKNTVYLQMNSLKPEDTAVYYCATRYVTTGYDYWGQGTQVTVSS	low polyreactivity
QVQLVESGGGLVQAGGSLRLSCAASGRTVKPYAMGWYRQAPGKERELVAAISSGVSTHYADSVKGRFTISRDNAKNSVYLQMNSLKPEDTAVYYCDADDWVNYWFDYWGQGTQVTVSS	low polyreactivity
QVQLVESGGGLVQAGGSLRLSCAASGRTWFYAMGWYRQAPGKERELVAAISGSSGSTYYADSVKGRFTISRDNAKNTVYLQMNSLKPEDTAVYYCAADFWRFYYEYDYWGQGTQVTVSS	low polyreactivity
QVQLVESGGGLVQAGGSLRLSCAASGRTYAAYAMGWYRQAPGKERELVAAISIGGSTNYADSVKGRFTISRDNAKNTVYLLMNSLKPEDTAVYYCAAGTWAVSKYLEWLEFYYWGKGTQVTVSS	high polyreactivity
QVQLVESGGGLVQAGGSLRLSCAASGRTYFYNTMGWYRQAPGKESELVARITRGGSTYYADSVKGRFTISRDNAKNTVYLQMPSLKPEDTAFYYCAAGYWRGYFLYGFDYWGQGTQVTVSS	high polyreactivity
QVQLVESGGGLVQAGGSLRLSCAASGRTYHAYAMGWYRQAPGKGRELVAAITRTGTTHYADSVKGRFTISRDNAKNTVYLQMNSLKPEETAVYYCNKATQFYQWGASPYYPRRDYWGQGTQVTVSS	low polyreactivity
QVQLVESGGGLVQAGGSLRLSCAASGRTYRQNAMGWYRQAPGKEGELVAAISSSGTNTHYADSVKGRFTISRDNAKNTVYLQMTSLKPEDTAVYYCAADSWGARRKQYHENGYWGQGSQVTVSS	high polyreactivity
QVQLVESGGGLVQAGGSLRLSCAASGRTYSNAMGWYRQAPGKERELVAAITWSGGRTYYADSVKGRFTISRDNAKNTVYLQMNSLKPEDTAVYYCAADSIWWPLWFDYWGQGTQVTVSS	high polyreactivity
QVQLVESGGGLVQAGGSLRLSCAASGRTYTFYARGWYRQAPGKERELVAAITWGGGSTYYADSVKGRFTISRDNAKNTVYLQMNSLKPEDTAVYYCAAEWYEPVGSRWYSPYYYWGQGTQVTVSS	high polyreactivity
QVQLVESGGGLVQAGGSLRLSCAASGSARYAMGWYRQAPGKERELVAAISRRGGSTFYADSVKGRFTISRDNAMNTVYLQMNSLKPEDTAVYYCAADGRISYDYWGQGTQVTVSS	low polyreactivity
QVQLVESGGGLVQAGGSLRLSCAASGSFFASYSMGWYRQAPAKERELVAAITYSGSRTYYADSVKGRFTISRDNAKNTVYLQMNSLKPEDSAVYYCNADYYWYPYEDDYWGQGTQVTVSS	low polyreactivity

Sequence	polyreactivity (PSR sort gate)
QVQLVESGGGLVQAGGSLRLSCAASGSIAGNAMGWYRQAPGKERELVAAITFRGSGTYYADSVKGRFTISRDNAKNTVYLQMNSLKPEDTAVDYCNAYRRGLSVYGYWGQGTQVTVSS	high polyreactivity
QVQLVESGGGLVQAGGSLRLSCAASGSIAMGWYRQAPGKERELVATISSSGGSTYYADSVKGRFTISRDNAKNTVYLQMNSLKPEDTAVYYCNTPQYLGPLYSEFDYWGQGTQVTVSS	low polyreactivity
QVQLVESGGGLVQAGGSLRLSCAASGSIAMGWYRQAPGKERELVATISSSGGSTYYADSVKGRFTISRDNAKNTVYLQMNSLKPEDTAVYYCNTQAVYGGGEGGYDYWGQGTQLTVSS	low polyreactivity
QVQLVESGGGLVQAGGSLRLSCAASGSICERYAMGWYRQAPGKERELVAAISWRGTRTFYADSVKGRFTISRDNAKNTVYLQMNSLKPEDTAVYYCAADSRPPKYDYWGQGTQVTVSS	high polyreactivity
QVQLVESGGGLVQAGGSLRLSCAASGSICISYAMGWYRPAPGKERELVAAINYSGGSTYYADSVKGRFTISRDNAKNTVYLQMNSLKPDDTAVYYCAKRSTYRYYGYKLRDYWGQGTQVTVSS	low polyreactivity
QVQLVESGGGLVQAGGSLRLSCAASGSICRLYAMGWYRPARGKEREFVAGITRRTGSTYYADSVKWRFTISRDNAKNTVYLQMTSLKPEETAVYYCAKRDARATPFGYWGLGTQVTVSS	high polyreactivity
QVQLVESGGGLVQAGGSLRLSCAASGSICSLYAKGWYRQEPGKERELVAAISSSGTSTYYADSVKGRFTISRDNSKNTVYLQMNSLKLEDTAVYYCNAYRRRATYNGDYWGQGTQLTVSS	high polyreactivity
QVQLVESGGGLVQAGGSLRLSCAASGSICSSYAMGWYRQAPGKERELVAAISGSGGSTFYADSVKGRFTISRDNAKNTVYLQMNSLKPEDTAVYYCAARYYWYGRAGKKHASYYYWGQGTQVTVSS	high polyreactivity
QVQLVESGGGLVQAGGSLRLSCAASGSIDSKYTMGWYRQAPGKERELVAAIRGSGVRTYYADSVKGRFTISRDNAKNTVYLQMNSLKPEDTAVYYCAKVVYRGKVALWISSTAGSDYWGQGTQVTVSS	low polyreactivity
QVQLVESGGGLVQAGGSLRLSCAASGSIFAANAMGWYRQAPGKERELVADITRGDGTNYADSVKGRFTISRDNAKNTVYLQMNSLKPEDTAVYYCAAEPSQRYPWSGYDYWGQGTQVTVSS	low polyreactivity
QVQLVESGGGLVQAGGSLRLSCAASGSIFAANAMGWYRQATGKESELVAAISWSGGSTYADSVKGRFTISRDNAKNTVYLQMNSLKPEDTAVYYCNAFVYVGTGRGYDTLDYWGQGTQVTVSS	low polyreactivity
QVQLVESGGGLVQAGGSLRLSCAASGSIFAFNAMGWYRQAPGKERELVAAITRSGGRTFYADSVKGRFTISRDNAKNTVYLQMNSLKPEDTAVYYCAASEWRFSSYGGVKYYVEYDYWGQGTQVTVSS	high polyreactivity
QVQLVESGGGLVQAGGSLRLSCAASGSIFAFNAMGWYRQAPGKERELVAAITSGGNTYYADSVKGRFTISRDNAKNTVYLQMNSLKPEDTAVYYWATVFSVQGWYFGMNYWGQGTQVTVSS	low polyreactivity
QVQLVESGGGLVQAGGSLRLSCAASGSIFAFNAMGWYRQAPGKERELVAGITISDSTNYADSVKGRFTISRDNAKNTVYLQMNSLKPEDTAVYYCNADYEQYVYWYWFIKYDYWGQGTQVTVSS	low polyreactivity
QVQLVESGGGLVQAGGSLRLSCAASGSIFAGNAMGWYRQAPGKERELVAAITFSAGRTSYADSVKGRFTISRDNAKNTVYLQMNSLKPEDTAVYYCAARYRTDYYPEYDYWGQGTQVTVSS	low polyreactivity
QVQLVESGGGLVQAGGSLRLSCAASGSIFAGNAMGWYRQPPGKERELVASISWRGGSTYYADSVKGRFTISRDNAKKTVYLQMNSLKPEDTAVYYCNADLVLFPLTWPYYYWGQGTQVTVSS	low polyreactivity
QVQLVESGGGLVQAGGSLRLSCAASGSIFAGYAMGWYRQAPGKERELVAAISWSGGRTYYADSVKGRFTISRDNAKNTVYLQMNSLKPEDTAVYYCAALYIYRTYAALSRYDYWGQGTQVTVSS	high polyreactivity
QVQLVESGGGLVQAGGSLRLSCAASGSIFALNVMGWYRQAPGKEREFVAAISVRSGSTYYADSVKGRFTISRDNAKNTVYLQMNSLKPEDTAVYYCAARTSRFWRGGGLDYWGQGTQVTVSS	high polyreactivity
QVQLVESGGGLVQAGGSLRLSCAASGSIFAPNAMGWYRHAPGKERELVAAISRSGGRTYYADSVKGRFTISRDNAKNTVYLQMNSLKPEDTAVYYCAADYKHQRTYGSWGQGTQVTVSS	high polyreactivity
QVQLVESGGGLVQAGGSLRLSCAASGSIFAPNAMGWYRQAPRKEREFVAGITQSGTSTYADSVKGRFTISRDNAKNTVYLQMNSLKPEDTAVYYCAAEYYYGYWYGYIISYDYWGQGTQVTVSS	high polyreactivity
